Laboratory results published in IntAct's records for PubMed 29749471.

B1: Bcl-2-like protein 12 (Homo sapiens), Q9HB09 (parent)
chain: MAGSEELGLREDTLRVLAAFLRRGEAAGSPVPTPPRSPAQEEPTDFLSRLRRCLPCSLGRGAAPSESPRPCSLPIRPCYGLEPGPATPDFYALVAQRLEQLVQEQLKSPPSPELQGPPSTEKEAILRRLVALLEEEAEVINQKLASDPALRSKLVRLSSDSFARLVELFCSRDDSSRPSRACPGPPPPSPEPLARLALAMELSRRVAGLGGTLAGLSVEHVHSFTPWIQAHGGWEGILAVSPVDLNLPLD

Variants of: B1
Details: with BCL2L1, Q07817-1
Sequence of BCL2L1, Q07817-1 (Q07817 whole entry): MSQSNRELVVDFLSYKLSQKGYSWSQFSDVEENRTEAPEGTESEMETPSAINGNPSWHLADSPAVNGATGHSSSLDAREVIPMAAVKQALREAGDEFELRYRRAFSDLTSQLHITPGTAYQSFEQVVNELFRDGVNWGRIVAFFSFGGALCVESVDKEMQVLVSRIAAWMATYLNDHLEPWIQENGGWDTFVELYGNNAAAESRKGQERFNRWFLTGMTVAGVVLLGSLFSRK

Row | Variant | effect of a mutation on the interaction
1 | L129A | disrupting interaction strength

Variants of: B1
Details: with bcl2_human BCL2, P10415
Sequence of bcl2_human BCL2, P10415 (P10415 whole entry): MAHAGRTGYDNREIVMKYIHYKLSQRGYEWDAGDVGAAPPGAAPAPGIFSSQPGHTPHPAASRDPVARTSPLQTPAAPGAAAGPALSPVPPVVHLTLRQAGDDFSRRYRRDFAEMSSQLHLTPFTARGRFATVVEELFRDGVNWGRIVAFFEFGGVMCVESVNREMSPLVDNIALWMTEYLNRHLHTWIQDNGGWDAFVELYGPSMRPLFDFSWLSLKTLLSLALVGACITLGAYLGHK

Row | Variant | effect of a mutation on the interaction
2 | L129A | disrupting interaction strength

Variants of: B1
Details: with bax_human BAX

Row | Variant | effect of a mutation on the interaction
3 | L129A | with no effect
4 | L133A | with no effect
5 | E134A | with no effect
6 | L132A | with no effect
7 | I125A | with no effect
8 | E136A | with no effect

Variants of: B1
Details: with gsk3b_human GSK3B

Row | Variant | effect of a mutation on the interaction
9 | I125A | disrupting interaction strength
